Reference: article PMC4875590, “LATE ELONGATED HYPOCOTYL regulates photoperiodic flowering via the circadian clock in Arabidopsis”

B1: FT CBS (dsDNA)
DNA 1: GCTTTAGATTTTTAATAG
DNA 2: CTATTAAAAATCTAAAGC
B2: FT EE (dsDNA)
DNA 1: TAATTAAAATATCTGCAAA
DNA 2: TTTGCAGATATTTTAATTA

Biological target: MBP-CCA1 (Arabidopsis thaliana, UniProt P92973 1-608)
Assay: EMSA; 100 ng protein; 100 ng poly(dI-dC); EMSA: 10 mM Tris-HCl pH 7.6, 50 mM NaCl, 1 mM EDTA, 5 mM DTT, 5% glycerol, 100 ng poly(dI-dC), 30 min, room temperature; 6% native PAGE
Settings: protein: recombinant; tags: MBP (N-terminal, pMAL-c2X); label: 32P end label

Chain of MBP-CCA1 (P92973 whole entry): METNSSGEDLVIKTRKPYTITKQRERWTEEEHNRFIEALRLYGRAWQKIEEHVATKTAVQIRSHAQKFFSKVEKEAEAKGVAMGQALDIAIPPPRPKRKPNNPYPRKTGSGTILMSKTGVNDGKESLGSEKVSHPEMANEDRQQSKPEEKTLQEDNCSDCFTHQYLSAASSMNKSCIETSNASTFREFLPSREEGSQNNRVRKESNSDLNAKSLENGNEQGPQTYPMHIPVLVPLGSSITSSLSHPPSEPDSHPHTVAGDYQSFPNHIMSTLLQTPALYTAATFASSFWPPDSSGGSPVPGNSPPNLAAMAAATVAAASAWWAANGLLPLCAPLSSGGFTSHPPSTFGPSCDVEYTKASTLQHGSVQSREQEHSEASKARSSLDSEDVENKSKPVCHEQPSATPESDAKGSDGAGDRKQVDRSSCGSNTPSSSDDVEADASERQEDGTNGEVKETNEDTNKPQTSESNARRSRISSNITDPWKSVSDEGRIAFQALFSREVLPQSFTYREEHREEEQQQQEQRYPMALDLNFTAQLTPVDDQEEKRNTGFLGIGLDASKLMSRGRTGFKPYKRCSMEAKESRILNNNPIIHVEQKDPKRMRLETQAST

Binder	binding result
B1	binds
B2	binds
